According to patent US20100092481A1:

B1: 13H11 (antibody, V domains shown)
VH: QVQLVQSGAEVKKPGASVKVSCKASGYTFTNYYIHWVRQAPGQGLEWMGIIHPSSGGTSYAQKFQGRVTMTRDTSTSTVSMDLSSLRSEDTAVYYCGRAFRILGLSDVFVNDWGQGTVVTVSS
VL: DIQMTQSPSSLSASVGDRVTITCRASQGINNYLAWYQQKPGKVPKLLIYAASTLQSGVPSRFSGSGSGTAFTLTILSLQPEDVATYYCQKYNSAPFTFGPGTKVDIK
B2: 6B4 (antibody, V domains shown)
VH: QVQLVESGGGVVQPGRSLRLSCAASGFRFNEFNMHWVRQAPGKGLEWVAVISIDGRHKYNADSVEGRFTISRDNSRNTLYLQMNSLRVEDTALYYCVTDGKAVDGFSGILEFWGQGTPVTVST
VL: EIVLTQSPATLSLSPGERATLSCWASQSVGGYLAWYQQKPGQAPRLLIYDASIRATGIPARFSGSGSGTHFTLTINSLEPEDFAVYYCQQRNNWPPLTFGGGTKVEIK
B3: 3G16 (antibody, V domains shown)
VH: RAQLVQSAAEMKNPGASVKVSCEASGYTFTGYYVHWMRQAPGQGLEWMGWINPMTGATKSPQKFQGRVTMTRDTSTTATHIELTRLRSDDSAVFFCARGGPTSTRITGKRHFDLWGRGTLITVAS
VL: QSALTQPASVSGSPGESITISCTGTISDVGAYNSVSWYQQHSGTAPELIIYDVTNRPAGVSSRFSGSKSGNTASLTISWLQSEDEAEYYCSSYTTSDTYVFGSGTQVTVL
B4: 11B12 (antibody, V domains shown)
VH: QMQLVQSGPQVKKPGTSVKVSCKASGFTFTSSAMQWVRQARGQRPEWIGWIVLGSGNTNYAQKFQERVTLTRDMSTATAYMELSSLRSEDTAVYYCAADRGRGGYNVYTYWGQGTLVAVSS
VL: EIVMTQSPGTLSLSPGERATLSCRASQTISNTYVAWYQQKPGQAPRLLIYGASSRATGIPDRFSGSGSGTDFTLTIRRLEPEDFAVYYCQQNGQSPWTFGQGTNVEIK

What was measured:
[1] = biological target: T1, hCMV gH protein, full length, expressed in HEK293T cells (human cytomegalovirus), P12824; assay: cell cross-competition, 20x excess; competitor 13H11-biotin; settings: remark: other sources report otherwise
[2] = biological target: T1, hCMV gH protein, full length, expressed …; assay: cell cross-competition, 20x excess; competitor 3G16-biotin; settings: remark: other sources report otherwise
[3] = biological target: T1, hCMV gH protein, full length, expressed …; assay: cell cross-competition, 20x excess; competitor 11B12-biotin; settings: remark: other sources report otherwise
[4] = biological target: gB 69-78 peptide (human cytomegalovirus) (UniProt P06473); assay: ELISA on peptide

Binder | Inhibition of binding (%) [1] [%] | Inhibition of binding (%) [2] [%] | Inhibition of binding (%) [3] [%] | EC50 [4] [µg/mL]
B1 | 100 | 0 | 100 | 
B2 |  |  |  | 0.044
B3 | 0 | 100 | 0 | 
B4 | 100 | 0 | 100 | 
